Experimental data: the supplement of paper PMC10567573
± gives the standard deviation.

Assay: protein stability index of a GFP-peptide fusion (GPS, HEK-293T) (PSI 1-6); higher = more stable
Conditions: c terminus: a fixed tail appended
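Also: 24-mer peptide tiles fused after GFP, lentivirally expressed, FACS-sorted into six equal bins by GFP/DsRed ratio, decoded by Illumina sequencing, PSI is the read-weighted mean bin number.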

Sequence | protein stability index (treatment: DMSO) | protein stability index (treatment: MLN4924 1 uM, 8 h)
KIDDLMQEITEQQDIAQEISEAFS [CHMP4C] | 4.75 ± 0.35 | 4.67 ± 0.28
QTFQWVKLPATMPEPVYFHCAAVT [KLHDC10] | 2.28 ± 0.36 | 2.33 ± 0.39
KCVTMSSAVVQLYAADRNCMWSKK [WASL] | 2.87 ± 0.18 | 2.88 ± 0.29
QAKILQCYRENTHQTLKCSALATQ [CHCHD3] | 3.21 ± 0.31 | 3.33 ± 0.26
SSSPPGTPSPADAKAPPTACYAGA [CEBPB] | 5.14 ± 0.14 | 4.91 ± 0.29
DRGLRGFPKNRVLEGVIDRYQQSK [TRIM9] | 3.98 ± 0.35 | 4.01 ± 0.29
GRHYWEVEVGDKTHWAVGVCRDSV [TRIM39] | 2.48 ± 0.41 | 2.42 ± 0.22
LLLLDLLALYTPVGAAGSARQELL [ANKRD9] | 2.89 ± 0.38 | 2.88 ± 0.27
SRLVAGEYLSFFDFSGLTLDGALR [PSD2] | 1.93 ± 0.094 | 2.3 ± 0.29
KVGKLAATAVGGGFFLLQLANHTG [FUNDC2] | 2.38 ± 0.59 | 2.46 ± 0.87
AQEALREKAAALERQLKVMASDHR [LRRC45] | 4.26 ± 0.27 | 4.29 ± 0.23
TLKKFKGDLAYRRQEYQKALQEYS [C8orf76] | 2.82 ± 0.29 | 2.79 ± 0.31
VADRWYSEIKNYNFQQPGFTSGTG [GLIPR2] | 2.61 ± 0.097 | 2.93 ± 0.34
VITIKSESTFKNTEISFILGQEFD [FABP4] | 2.23 ± 0.53 | 2.4 ± 0.078
LQMEMKEDDVSFLMKHKSRKRRLF [TRIM35] | 3.35 ± 0.35 | 3.54 ± 0.16
AADGETNGSCENSDASSHANAAKH [EHMT1] | 5.51 ± 0.12 | 5.35 ± 0.14
DFVLEMNTAKSTSRVTAFLDDLSQ [NLN] | 2.75 ± 0.26 | 2.72 ± 0.33
GGSCRAPSTYGGGLSVSSRFSSGG [KRT16] | 2.97 ± 0.27 | 3.02 ± 0.15
TVIHDFLFSLKESPEKFQIEANFP [FAF2] | 2.14 ± 0.37 | 2.03 ± 0.19

Sequence | protein stability index (treatment: DMSO) | protein stability index (treatment: MLN4924 1 uM, 8 h)
NKLPEGVPQPARMPYISDKHPRQT [KLHL20] | 4.69 ± 0.12 | 4.77 ± 0.15
LSRQEFLGMVGLFGTIISGIQLLI [SLC35F2] | 2.28 ± 0.25 | 2.09 ± 0.33
PRGYFHTFAGDTCQVALNFANEEE [WASL] | 4.43 ± 0.27 | 4.34 ± 0.12
KVPRPDALDNESWGFVHPRLLSVP [RETREG3] | 2.91 ± 0.13 | 2.74 ± 0.081
SLKAICTEIANCSLKVKFFDLERE [PLD5] | 2.12 ± 0.17 | 2.26 ± 0.84
VTVKDETATMKDLEAEVKDTTRVE [R3HDM1] | 5.33 ± 0.17 | 5.56 ± 0.053
LYSRTGDIVEFVCKSGYHPTKSHS [CFHR2] | 2.15 ± 0.16 | 2.45 ± 0.4
QVTCSILAYLPFKLEKSIDSYYRL [PCDHGA10] | 2.79 ± 1.1 | 2.05 ± 0.81
SWQDLKDHMREAGDVCYADVYRDG [SRSF1] | 3.96 ± 0.68 | 4.21 ± 0.12
FTEASMMMSLTKLADKELVHMISW [ESR2] | 3.29 ± 0.78 | 3.48 ± 1.2
AEAEPEDQDEGEWGLDQEQVFSLG [ZBED1] | 5.34 ± 0.44 | 5.52 ± 0.44
LPRRDFQRQVWLLFEYPESSGPAR [KCNA3] | 2.32 ± 0.26 | 2.71 ± 0.58
RWSLISLSNKNGKNVELKFVDSIR [TENT5C] | 2.39 ± 0.26 | 2.36 ± 0.44
FRETEKSRWSEASRAILQRVQAAA [ALKBH7] | 3.21 ± 0.18 | 3.3 ± 0.16
MSVAIRKRSWEEHVTHWMGQPFNS [DLC1] | 2.41 ± 0.65 | 2.43 ± 0.18
VRKEDMTYAVRKLDNTKFRSHEGE [SRSF1] | 4.32 ± 0.13 | 4.13 ± 0.16
GVEVIVRISHTLYDLDKIIELNGG [CRY1] | 3.29 ± 1.2 | 2.57 ± 0.76
TQKLEEIKENAQDTMRQINKKGFW [TOR1AIP2] | 3.61 ± 0.16 | 4.08 ± 0.36
AFQLLRRFVQAEGRRATLQRLVEA [TRADD] | 2.19 ± 0.15 | 2.26 ± 0.38
